Measurements published in article PMC6405930, “Conservation of the Amyloid Interactome Across Diverse Fibrillar Structures” (Scientific Reports, 2019).

Columns and labels:
Assay in all cases: Fibril incubation with CSF, quantitative MS/MS of bound proteins
glucagon fibrils = target: T1, glucagon fibrils (Homo sapiens, UniProt P01275); type: binding; conditions: 4:1 w/w CSF protein:fibril
T1 construct: fibrils of the peptide hormone glucagon
Procedure: (§1) Plasma and CSF solutions were centrifuged (40,000 g, 20 min) to remove any aggregates. The protein concentration was determined using 280 nm absorbance assuming 1 Abs = 1 mg/mL. […] Control samples (without fibril material) were prepared similarly. All samples were incubated at room temperature for one hour under gentle agitation. Fibrils and fibril-bound proteins were pelleted by centrifugation at 17,000 g for 30 minutes. The supernatant (175 μL) was removed and the aggregate was re-suspended in 175 μL PBS and pelleted again before further preparation for gel analysis and spin-filter assisted digest for quantitative MS/MS.
(§2) The fibril-protein pellets were transferred to spin-filters (0.22 μm), washed twice in PBS (100 μL) and once in 1 M NaCl (100 μL). The fibrils and fibril-bound proteins were dissolved by one-hour incubation in 100 μL 6 M guanidinium chloride followed by elution from the spin-filter. The eluted proteins were loaded onto a 3 kDa MWCO filter unit for filter-assisted unfolding, reduction, alkylation, and trypsin digestion. In brief, samples were washed twice in 8 M urea, once in 8 M urea with 50 mM DTT, once in 8 M urea with 50 mM iodoaceteamide, and twice in 8 M Urea. The filter units were dried by centrifugation (14,000 g in 30 minutes) after every addition. Trypsin digestion was carried out with 0.25 μg sequencing grade trypsin from Sigma Aldrich in 50 mM ammonium bicarbonate overnight at 37 °C. The tryptic peptides were collected by centrifugation, acidified with TFA (0.1%) and micro-purified using POROS R2 column material (Applied Biosystems) packed in P200 pipette tips (Sarstedt).
(§3) LC-MS/MS analyses were performed on an EASY-nLC II system (Thermo Fisher Scientific) connected to a TripleTOF 5600+ mass spectrometer (Sciex) equipped with a NanoSpray III source (Sciex) and operated under Analyst TF 1.6.0 control.
(§4) The micro-purified tryptic peptides were dissolved in 0.1% formic acid, injected and trapped on an in-house packed trap column (2 cm × 100 μm I.D) with RP ReproSil-Pur C18-AQ 3 μm resin (Dr. Maisch GmbH). Peptides were eluted from the trap column and separated on a 15 cm analytical column (75 μm i.d.) packed in-house in a pulled emitter with RP ReproSil-Pur C18-AQ 3 μm resin (Dr. Maisch GmbH). Elution from the analytical column was performed with a linear gradient from 5% to 35% phase B (90% acetonitrile with 0.1% formic acid) over 20 min for protein identification and 50 min for quantitative analysis, respectively.
(§5) All samples were analysed three times, yielding nine MS/MS experiments for each fibril for both plasma and CSF. For the area-based extracted ion chromatogram (XIC) quantification, the acquisition method was set up as an information-dependent acquisition (IDA) experiment collecting up to 25 MS/MS spectra in each 1.6 sec cycle using an exclusion window of 6 sec.
(§6) XIC quantification was based on the average ion intensity of the three most abundant peptides for each protein. Only proteins quantified in at least four out of nine MS/MS experiments per fibril were included in the quantification. The total ion scores were visualized after grouping the proteins according to function (Figure S11).
(§7) For each MS/MS experiment, the ion intensities of the individual proteins were normalized to the total ion intensity of that MS/MS experiment to achieve a relative protein composition. The contribution of each protein was averaged over all nine MS/MS experiments (Tables 1 and 2).

αSN fibrils = αSN fibrils (Homo sapiens, UniProt P37840); type: binding; design: key to Identification status of CSF protein bound: αSN: *: Identified, but not quantified; —: Not identified in any of the samples; conditions: for Identification status of CSF protein bound: αSN: symbol cells
Procedure: as §1, §2, §3, §4, §5, §6, §7

Ab1 fibrils = tested on: T2, Ab1 fibrils; type: binding, human; conditions: 4:1 w/w CSF protein:fibril
T2 construct: Synthetic amyloid β peptide 1–40 was purchased from Caslo Aps (Lyngby, Denmark); purchased Caslo Aps (Lyngby, Denmark); host or cells: synthetic peptide
Procedure: as §1, §2, §3, §4, §5, §6, §7

FAS4-AD aggregates = tested on: T3, FAS4-AD aggregates; type: binding, human; design: key to Identification status of CSF protein bound: FAS4-AD: *: Identified, but not quantified; —: Not identified in any of the samples; conditions: symbol cells
T3 construct: aggregates of a mutated version of the FAS1-4 domain of TGFBIp
Procedure: as §1, §2, §3, §4, §5, §6, §7

Ab2 fibrils = tested on: T4, Ab2 fibrils; type: binding, human; conditions: 4:1 w/w CSF protein:fibril
T4 construct: Two structurally distinct fibrils of the Aβ(1–40) peptide associated with AD
Procedure: as §1, §2, §3, §4, §5, §6, §7

C-36 fibrils = target: T5, C-36 fibrils (Homo sapiens, UniProt P01009); type: binding; design: key to Identification status of CSF protein bound: C-36: *: Identified, but not quantified; —: Not identified in any of the samples; conditions: for Relative composition of CSF proteins bound: C-36: 4:1 w/w CSF protein:fibril
T5 construct: the 36 residue C-terminal fragment of α1-antitrypsin (C-36)
T5 sequence (P01009 383-418 limits assumed): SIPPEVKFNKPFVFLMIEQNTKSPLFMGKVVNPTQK
Procedure: as §1, §2, §3, §4, §5, §6, §7

T1 sequence (P01275 53-81 limits assumed): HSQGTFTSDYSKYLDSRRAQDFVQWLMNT

Molecule | Relative composition of CSF proteins bound: Glucagon (glucagon fibrils) | Identification status of CSF protein bound: αSN (αSN fibrils) | Relative composition of CSF proteins bound: Ab1 (Ab1 fibrils) | Identification status of CSF protein bound: FAS4-AD (FAS4-AD aggregates) | Relative composition of CSF proteins bound: Ab2 (Ab2 fibrils) | Relative composition of CSF proteins bound: C-36 (C-36 fibrils) | Relative composition of CSF proteins bound: αSN (αSN fibrils; 4:1 w/w CSF protein:fibril) | Identification status of CSF protein bound: C-36 (C-36 fibrils; symbol cells)
Fibulin-1: CSF protein bound to fibrils (protein, UniProt P23142 30-703, looked up) Fibulin-1: DVLLEACCADGHRMATHQKDCSLPYATESKECRMVQEQCCHSQLEELHCATGISLANEQDRCATPHGDNASLEATFVKRCCHCCLLGRAAQAQGQSCEYSLMVGYQCGQVFQACCVKSQETGDLDVGGLQETDKIIEVEEEQEDPYLNDRCRGGGPCKQQCRDTGDEVVCSCFVGYQLLSDGVSCEDVNECITGSHSCRLGESCINTVGSFRCQRDSSCGTGYELTEDNSCKDIDECESGIHNCLPDFICQNTLGSFRCRPKLQCKSGFIQDALGNCIDINECLSISAPCPIGHTCINTEGSYTCQKNVPNCGRGYHLNEEGTRCVDVDECAPPAEPCGKGHRCVNSPGSFRCECKTGYYFDGISRMCVDVNECQRYPGRLCGHKCENTLGSYLCSCSVGFRLSVDGRSCEDINECSSSPCSQECANVYGSYQCYCRRGYQLSDVDGVTCEDIDECALPTGGHICSYRCINIPGSFQCSCPSSGYRLAPNGRNCQDIDECVTGIHNCSINETCFNIQGGFRCLAFECPENYRRSAATLQQEKTDTVRCIKSCRPNDVTCVFDPVHTISHTVISLPTFREFTRPEEIIFLRAITPPHPASQANIIFDITEGNLRDSFDIIKRYMDGMTVGVVRQVRPIVGPFHAVLKLEMNYVVGGVVSHRNVVNVHIFVSEYWF | 0.3 ± 0.0 % of total protein | — | 1.4 ± 0.1 % of total protein | — | 1.3 ± 0.1 % of total protein | 1.2 ± 0.2 % of total protein |  | 
Amyloid-like protein 1: CSF protein bound to fibrils (protein, UniProt P51693 39-650, looked up) Amyloid beta precursor like …: SLAGGSPGAAEAPGSAQVAGLCGRLTLHRDLRTGRWEPDPQRSRRCLRDPQRVLEYCRQMYPELQIARVEQATQAIPMERWCGGSRSGSCAHPHHQVVPFRCLPGEFVSEALLVPEGCRFLHQERMDQCESSTRRHQEAQEACSSQGLILHGSGMLLPCGSDRFRGVEYVCCPPPGTPDPSGTAVGDPSTRSWPPGSRVEGAEDEEEEESFPQPVDDYFVEPPQAEEEEETVPPPSSHTLAVVGKVTPTPRPTDGVDIYFGMPGEISEHEGFLRAKMDLEERRMRQINEVMREWAMADNQSKNLPKADRQALNEHFQSILQTLEEQVSGERQRLVETHATRVIALINDQRRAALEGFLAALQADPPQAERVLLALRRYLRAEQKEQRHTLRHYQHVAAVDPEKAQQMRFQVHTHLQVIEERVNQSLGLLDQNPHLAQELRPQIQELLHSEHLGPSELEAPAPGGSSEDKGGLQPPDSKDDTPMTLPKGSTEQDAASPEKEKMNPLEQYERKVNASVPRGFPFHSSEIQRDELAPAGTGVSREAVSGLLIMGAGGGSLIVLSMLLLRRKKPYGAISHGVVEVDPMLTLEEQQLRELQRHGYENPTYRFLEERP | 0.6 ± 0.0 % of total protein | * | 2.8 ± 0.2 % of total protein | — | 3.4 ± 0.7 % of total protein | 2.0 ± 0.1 % of total protein |  | 
Calsyntenin-1: CSF protein bound to fibrils (protein, UniProt O94985 29-981, looked up) Calsyntenin-1: ARVNKHKPWLEPTYHGIVTENDNTVLLDPPLIALDKDAPLRFAESFEVTVTKEGEICGFKIHGQNVPFDAVVVDKSTGEGVIRSKEKLDCELQKDYSFTIQAYDCGKGPDGTNVKKSHKATVHIQVNDVNEYAPVFKEKSYKATVIEGKQYDSILRVEAVDADCSPQFSQICSYEIITPDVPFTVDKDGYIKNTEKLNYGKEHQYKLTVTAYDCGKKRATEDVLVKISIKPTCTPGWQGWNNRIEYEPGTGALAVFPNIHLETCDEPVASVQATVELETSHIGKGCDRDTYSEKSLHRLCGAAAGTAELLPSPSGSLNWTMGLPTDNGHDSDQVFEFNGTQAVRIPDGVVSVSPKEPFTISVWMRHGPFGRKKETILCSSDKTDMNRHHYSLYVHGCRLIFLFRQDPSEEKKYRPAEFHWKLNQVCDEEWHHYVLNVEFPSVTLYVDGTSHEPFSVTEDYPLHPSKIETQLVVGACWQEFSGVENDNETEPVTVASAGGDLHMTQFFRGNLAGLTLRSGKLADKKVIDCLYTCKEGLDLQVLEDSGRGVQIQAHPSQLVLTLEGEDLGELDKAMQHISYLNSRQFPTPGIRRLKITSTIKCFNEATCISVPPVDGYVMVLQPEEPKISLSGVHHFARAASEFESSEGVFLFPELRIISTITREVEPEGDGAEDPTVQESLVSEEIVHDLDTCEVTVEGEELNHEQESLEVDMARLQQKGIEVSSSELGMTFTGVDTMASYEEVLHLLRYRNWHARSLLDRKFKLICSELNGRYISNEFKVEVNVIHTANPMEHANHMAAQPQFVHPEHRSFVDLSGHNLANPHPFAVVPSTATVVIVVCVSFLVFMIILGVFRIRAAHRRTMRDQDTGKENEMDWDDSALTITVNPMETYEDQHSSEEEEEEEEEEESEDGEEEDDITSAESESSEEEEGEQGDPQNATRQQQLEWDDSTLSY | 0.4 ± 0.2 % of total protein |  |  | — | 1.8 ± 0.8 % of total protein | 1.2 ± 0.1 % of total protein | 3.1 ± 0.4 % of total protein | 
Cystatin-C: CSF protein bound to fibrils (protein, UniProt P01034 27-146, looked up) Cystatin-C: SSPGKPPRLVGGPMDASVEEEGVRRALDFAVGEYNKASNDMYHSRALQVVRARKQIVAGVNYFLDVELGRTTCTKTQPNLDNCPFHDQPHLKRKAFCSFQIYAVPWQGTMTLSKSTCQDA | 0.9 ± 0.0 % of total protein | * | 3.9 ± 0.4 % of total protein | * | 6.0 ± 0.6 % of total protein |  |  | *
α2-HS-glycoprotein: CSF protein bound to fibrils (protein, UniProt P02765 19-300; P02765 341-367, looked up) Alpha-2-HS-glycoprotein chain … 1: APHGPGLIYRQPNCDDPETEEAALVAIDYINQNLPWGYKHTLNQIDEVKVWPQQPSGELFEIEIDTLETTCHVLDPTPVARCSVRQLKEHAVEGDCDFQLLKLDGKFSVVYAKCDSSPDSAEDVRKVCQDCPLLAPLNDTRVVHAAKAALAAFNAQNNGSNFQLEEISRAQLVPLPPSTYVEFTVSGTDCVAKEATEAAKCNLLAEKQYGFCKATLSEKLGGAEVAVTCMVFQTQPVSSQPQPEGANEAVPTPVVDPDAPPSPPLGAPGLPPAGSPPDSHVL Alpha-2-HS-glycoprotein chain … 2: TVVQPSVGAAAGPVVPPCPGRIRHFKV | 0.7 ± 0.2 % of total protein | * | 1.1 ± 0.0 % of total protein | — | 1.9 ± 0.6 % of total protein | 3.6 ± 0.7 % of total protein |  | 
